Test results published in the supplement of paper PMC9876800.

System: peptide library, one residue held at a place counted from the S/T acceptor
Experiment: relative phosphorylation of the sub-library (ratio to the mean residue at this position); higher = residue favoured
Conditions: human
In short: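 Human or orthologue kinase constructs, purified and recombinant, were incubated under kinase-specific conditions in 384-well plates with biotinylated degenerate peptide sub-libraries. Each sub-library fixed one residue at one position around a central Ser/Thr. Incubations lasted 90 min with peptides at 50 μM and 50 μM ATP spiked with γ-32P-ATP, after which spots on streptavidin membranes were phosphorimaged and quantified by densitometry. Relative sub-library phosphorylation is a ratio to the mean residue at that position.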

Chain of MAK, construct: Full length (P20794 whole entry, looked up): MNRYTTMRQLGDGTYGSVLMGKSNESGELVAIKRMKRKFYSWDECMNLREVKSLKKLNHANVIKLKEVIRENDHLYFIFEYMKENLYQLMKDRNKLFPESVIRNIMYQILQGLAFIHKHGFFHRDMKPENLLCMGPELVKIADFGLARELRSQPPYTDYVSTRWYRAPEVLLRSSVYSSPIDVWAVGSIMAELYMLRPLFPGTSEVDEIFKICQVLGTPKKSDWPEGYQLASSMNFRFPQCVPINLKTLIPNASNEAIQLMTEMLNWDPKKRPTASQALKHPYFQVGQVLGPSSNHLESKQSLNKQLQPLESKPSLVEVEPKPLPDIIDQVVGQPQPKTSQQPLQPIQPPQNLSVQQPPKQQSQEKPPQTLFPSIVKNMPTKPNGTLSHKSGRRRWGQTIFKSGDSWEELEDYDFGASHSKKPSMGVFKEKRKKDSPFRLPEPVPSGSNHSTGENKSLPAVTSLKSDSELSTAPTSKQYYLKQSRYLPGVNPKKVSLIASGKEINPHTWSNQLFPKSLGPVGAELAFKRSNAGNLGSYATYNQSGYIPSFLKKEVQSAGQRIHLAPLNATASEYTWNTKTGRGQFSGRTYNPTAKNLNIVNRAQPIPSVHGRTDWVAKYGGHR
Chain of MAPK10, construct: aa1-426 (P53779 1-426, looked up): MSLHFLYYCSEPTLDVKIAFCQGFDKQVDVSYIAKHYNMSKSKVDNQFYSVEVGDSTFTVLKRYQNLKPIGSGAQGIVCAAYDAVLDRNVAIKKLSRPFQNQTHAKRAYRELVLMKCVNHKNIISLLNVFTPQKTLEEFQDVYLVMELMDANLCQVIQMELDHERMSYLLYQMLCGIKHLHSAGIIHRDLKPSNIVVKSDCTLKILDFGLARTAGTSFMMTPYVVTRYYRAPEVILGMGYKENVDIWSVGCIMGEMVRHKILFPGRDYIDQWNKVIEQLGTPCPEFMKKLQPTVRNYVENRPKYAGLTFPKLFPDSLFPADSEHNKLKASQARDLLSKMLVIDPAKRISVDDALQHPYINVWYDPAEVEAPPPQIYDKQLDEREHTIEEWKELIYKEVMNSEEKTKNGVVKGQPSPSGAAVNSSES
Chain of CSNK1G1, construct: aa21-end (Q9HCP0 21-422, looked up): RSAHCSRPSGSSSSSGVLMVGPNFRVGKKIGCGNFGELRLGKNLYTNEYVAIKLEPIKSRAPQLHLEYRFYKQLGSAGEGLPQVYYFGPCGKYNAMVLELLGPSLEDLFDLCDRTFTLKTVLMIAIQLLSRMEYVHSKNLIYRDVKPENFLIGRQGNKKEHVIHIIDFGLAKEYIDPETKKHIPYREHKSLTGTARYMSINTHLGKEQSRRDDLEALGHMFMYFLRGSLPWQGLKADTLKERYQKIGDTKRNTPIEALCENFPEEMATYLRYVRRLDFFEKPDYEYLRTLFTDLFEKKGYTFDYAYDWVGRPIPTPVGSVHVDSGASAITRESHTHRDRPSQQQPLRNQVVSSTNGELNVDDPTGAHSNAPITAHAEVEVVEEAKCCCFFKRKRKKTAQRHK

MAPK10, construct: aa1-426 (from UniProt P53779)
relative phosphorylation
Conditions	at +1	at +2	at +3	at +4	at -1	at -2	at -3	at -4	at -5
A fixed	0.471	0.918	1.3	1.17	1.08	2.16	1.22	1.22	1.17
D fixed	0.256	1	1.44	1.34	0.89	0.958	1.36	1.39	1.42
E fixed	0.234	0.725	1.52	1.25	0.855	0.548	1.15	1.28	1.18
F fixed	0.456	0.765	0.929	0.851	0.752	0.582	1	0.854	0.875
G fixed	0.671	1.12	1.38	1.1	1.16	0.785	1.13	1.06	1.15
H fixed	0.281	1.05	1.19	1.12	1.13	0.552	1.08	1.03	0.964
I fixed	0.351	1.26	0.596	0.783	0.662	1.25	0.735	0.705	0.738
K fixed	0.268	0.779	0.611	0.82	0.982	0.548	0.653	0.783	0.754
L fixed	0.366	1.27	0.77	0.913	1.2	1.96	0.853	0.753	0.644
M fixed	0.369	1.76	0.922	0.888	1.27	1.07	1.06	1.01	0.722
N fixed	0.269	1.03	1.07	1.07	0.849	0.554	1.03	0.84	0.928
P fixed	11.5	0.517	0.564	1.5	1.47	2.13	1.2	1.23	1.33
Q fixed	0.259	1.03	1	1.05	1.37	0.747	0.964	1.01	1.07
R fixed	0.269	0.848	0.945	0.893	1.01	0.612	0.883	0.923	1.07
V fixed	0.367	1.48	0.723	0.82	0.781	1.43	0.717	0.843	0.913
W fixed	0.29	0.723	1.03	0.701	0.722	0.587	1.03	1.1	0.967
Y fixed	0.292	0.734	0.999	0.732	0.815	0.518	0.929	0.962	1.1
pThr fixed	0.434	1.94	1.02	1.4	0.52	1.08	1.06	1.17	1.29
pTyr fixed	0.569	1.23	1.59	1.02	0.893	0.598	1.03	1.64	1.41

CSNK1G1, construct: aa21-end (from UniProt Q9HCP0)
relative phosphorylation
Conditions	at +1	at +2	at +3	at +4	at -1	at -2	at -3	at -4	at -5
A fixed	0.872	1.05	1.29	1.13	1.38	2.1	0.918	1.23	1.22
D fixed	0.317	0.551	0.757	0.828	0.406	1	5.14	1.25	1.11
E fixed	0.4	0.293	0.823	0.662	0.47	1.13	2.32	1.12	0.901
F fixed	0.853	1.21	1.31	1.45	0.713	0.511	0.471	0.984	0.913
G fixed	0.611	1.02	1.62	1.19	1.53	1.19	0.734	1.07	1.04
H fixed	0.731	1.71	1.03	0.976	0.983	0.714	0.633	0.918	1.1
I fixed	2.43	1.06	0.755	0.921	0.927	1.11	0.42	0.799	0.734
K fixed	0.461	1.03	0.731	0.812	1.27	0.674	0.644	0.981	1.44
L fixed	2.32	0.922	0.962	0.894	1.06	0.949	0.482	0.81	0.892
M fixed	1.77	0.951	0.957	0.943	1.01	0.63	0.389	0.796	0.801
N fixed	0.619	0.976	0.842	0.786	0.597	1.53	0.758	0.877	1.02
P fixed	0.326	0.369	0.774	1.15	1.36	1.08	0.646	1	0.87
Q fixed	0.685	0.798	0.732	0.839	0.886	1.08	0.546	0.76	0.798
R fixed	0.771	1.01	0.884	0.713	1.28	0.919	1.07	0.814	1.05
V fixed	2.03	1.01	0.76	0.947	0.978	1.26	0.582	0.763	0.875
W fixed	0.861	1.25	1.4	1.35	1.25	0.608	0.636	1.72	1.24
Y fixed	0.935	1.79	1.37	1.41	0.898	0.511	0.604	1.11	1
pThr fixed	0.575	0.524	0.83	1.73	0.534	3.07	34	4.36	1.61
pTyr fixed	0.734	3.17	4.7	1.83	0.64	2.15	5.42	3.67	2.21

MAK, construct: Full length (from UniProt P20794)
relative phosphorylation
Conditions	at +1	at +2	at +3	at +4	at -1	at -2	at -3	at -4	at -5
A fixed	2.18	1.07	0.904	0.995	1.19	0.647	0.835	1.16	1.16
D fixed	0.175	1.06	0.653	0.701	0.423	0.165	0.276	0.752	0.824
E fixed	0.155	0.749	0.523	0.677	0.32	0.18	0.251	0.781	0.745
F fixed	0.321	0.762	0.858	0.704	0.498	0.159	0.201	0.633	0.864
G fixed	2.02	1.56	1.51	1.49	1.8	0.63	0.653	1.33	1.5
H fixed	0.308	1.09	1.32	1.19	0.982	0.251	0.428	0.856	0.994
I fixed	0.431	0.736	0.785	0.785	0.315	0.476	0.291	0.647	0.745
K fixed	0.324	1.01	1.37	1.21	1.92	0.779	0.872	1.06	0.989
L fixed	0.394	1.03	1.06	0.853	0.638	0.632	0.356	0.707	0.723
M fixed	0.445	0.979	0.901	0.878	1.07	0.406	0.309	0.803	0.855
N fixed	0.322	1.05	0.924	0.995	0.94	0.313	0.382	0.732	0.726
P fixed	7.71	0.986	1.21	1.36	1.51	8.65	2.32	1.8	1.9
Q fixed	0.393	0.939	0.904	0.898	1.13	0.394	0.513	0.898	1.03
R fixed	0.759	1.08	1.47	1.48	2.24	2.32	8.51	2.58	1.36
V fixed	0.455	0.907	0.978	0.877	0.63	0.631	0.302	0.81	0.821
W fixed	0.329	0.988	0.801	1.01	0.616	0.192	0.238	0.725	0.725
Y fixed	0.274	1	0.831	0.908	0.788	0.178	0.254	0.725	1.04
pThr fixed	0.401	0.534	0.748	0.735	0.265	0.377	0.408	0.851	0.905
pTyr fixed	0.326	0.839	0.706	0.678	0.338	0.212	0.365	0.759	0.912
